Measured values from the nanobody polyreactivity screen of Harvey et al. (2022).

experiment: yeast display, Sf9 membrane polyspecificity reagent, FACS + sequencing; frameworks hold sequencing errors
How it was run: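 A nanobody's polyreactivity label depends on the gate it was sorted from. Yeast display cells were stained with 10% biotinylated, detergent-solubilized Sf9 membrane reagent for 1 hour at 4 °C, enriched on streptavidin microbeads and sorted by FACS. The low and high (top ~1%) gates were set on anti-HA fluorescence for expression and streptavidin fluorescence for reagent binding.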

Row | Sequence | polyreactivity (PSR sort gate)
1 | QVQLVESVGGLVQAGGSLRLSCAASGSIFGVYAMGWYRQAPGKERELVATISRSGAITYYADSVKGRFTISRDNAKNTVYLQMNSLKPEDTAVYYCAADFFSREWGQGTQVTVSS | low polyreactivity
2 | QVQLVESVGGLVQAGGSLRLSCAASGSIFGYYAMGWYRPAPGKERELVATITWGGGSTYADSVKGRFTISRDNAKNTVYLQMNSLKPEDTAVYYCNAGYRYTSAQVTWEYDYWGQGTQVTVSS | low polyreactivity
3 | QVQLVESVGGLVQAGGSLRLSCAASGSIFNYYAMGWYRQAPGKERELVAAITTSGGNTYYADSVKGRFTISRDNPKNTVYLQMNSLKPEDTAVYYCAADYWASGGEYDYWGQGTQVTVSS | low polyreactivity
4 | QVQLVESVGGLVQAGGSLRLSCAASGSIFQPYAMGWYRQAPGKERELVAAISIGDSTNYADSLKGRFTISRDNAKNTFYLQMNSLIPEDTAVYYCNTTGEYYDYWGQGTQVTVSS | low polyreactivity
5 | QVQLVESVGGLVQAGGSLRLSCAASGSIFSAYAMGWYRQAPGKERELVASISWSGSSTYADSVKGRFTISRDNAKNTVYLQMNSLKPEDTAVYYCAAGYYSFRSAYDYWGQGTQVTVSS | high polyreactivity
6 | QVQLVESVGGLVQAGGSLRLSCAASGSIFSWYAMGWYRQAPGNARELVAAIRRGGSTYYADSVKGRFTISRDNATNTVYLQMNSLKPEDTAVYYCADRVYTAASRGRGDYWGQGTQVTVSS | low polyreactivity
7 | QVQLVESVGGLVQAGGSLRLSCAASGSIFVTYAMGWYRQAPGKERELVAVITWGGGSTYYADSVKGRFTISRDNAKNTVYLQMNSLIPEDTAVYYCAKDSYYYRRDVNVDYWGQGTQVTVSS | low polyreactivity
8 | QVQLVESVGGLVQAGGSLRLSCAASGSIISFNAMGWYRQAPRKERELVASISRNGGSSYYADSVKGRFTISRDNAKNTVYLQMNSLKPEDTAVYYCAVKVRNRRYGYWGQGTQVTVSS | high polyreactivity
9 | QVQLVESVGGLVQAGGSLRLSCAASGSILWLYAMGWYRQAPGKERELVAAISGSGRTNYADSEKGLFTISRDNAKNTVYLQMNSQKPEDTAVYYCARVHGTSESKYYYWGQGTQVTVSL | low polyreactivity
10 | QVQLVESVGGLVQAGGSLRLSCAASGSNFRGYAMGWYRQAPGKERELVAAISWSGVSTYYADSVKGRFTISRDNAKNTVYLQMNSLKPEDTAVYDCAAGYSSAYLRFGYWGQGTQVTVSS | low polyreactivity
11 | QVQLVESVGGLVQAGGSLRLSCAASGSTFADYVMGWYRQAPGKERELVAAITSSGGSTYYADSVNGRFTISRDNAKNTVYLQMNSLKPEDTAVYYCAAQQSPSVDYWGQGTQVTVSS | low polyreactivity
12 | QVQLVESVGGLVQAGGSLRLSCAASGSTFGFNAMGWYRQAPGKERELVAAIRRSDSSTYYADSVKGRFTISRDNAKNTVYLQMNSLKPEDTAVYYCAADVWVSWLLFKYEYWGQGTQVTVSS | low polyreactivity
13 | QVQLVESVGGLVQAGGSLRLSCAASGSTFGYYAMGWYRQAPGKERELVATITWSGGSTNYGDSVKGRFTISRDNEKNTVYLQMKSLKPEDTAVYYCAADLKYWYFGLAFIEVDYWGQGTQVTVSS | low polyreactivity
14 | QVQLVESVGGLVQAGGSLRLSCAASGSTFIQYAMGRYRHAPGKERELVASNSRSAGSTYYADSVKGRFTISRDNAKNTVYLQMNSLKPEDTAVYYCAADSYYLGYYLGSYSWDYGYWGQGTQVTVSS | high polyreactivity
15 | QVQLVESVGGLVQAGGSLRLSCAASGSTFPVYVMGWYRQAPGKERELVAAITRIGGSTYYADSVKGRFTISRDNAKNTVYLQMNSLKPEDTAVYYCAAGGTARDDSWGQGTQVTVSS | low polyreactivity
16 | QVQLVESVGGLVQAGGSLRLSCAASGSTFQGNAMGWYIQAPGKERELVAAISRSGGSTYADSVKGRFTISRDNAKNTVYLQMNSLKPEDTAVYYCAAYSGVGYLWFDYWGLGTQVTVSS | low polyreactivity
17 | QVQLVESVGGLVQAGGSLRLSCAASGSTFRRYAMGWSRQAPGKERELVASISRSGGSTYYADSVKGRFTISRDNAKNTVYLQMNSLKPEDTAVYYCAKKPYKSAYDYSSAYDYWGQGTQVTVSS | high polyreactivity
18 | QVQLVESVGGLVQAGGSLRLSCAASGSTFSSNAMGWYRQAPGKERELVAAINRTGNTYYADSVKGRFTISRDNAKNTVYLQMNSLKPEDTAVYYCNTDLNLYRGGGYWGQGTQVTVSS | low polyreactivity
19 | QVQLVESVGGLVQAGGSLRLSCAASGSTFYGYAMGWYRQAPGKETELVAAINWSGGSTFYADSVKGRFTISRDNAKNTVYLKMNSLKPEDTAVYYCNKAWRGSVSRRYYYWGQGTQVTVSS | high polyreactivity
20 | QVQLVESVGGLVQAGGSLRLSCAASGSTFYNNAMGWYRQAPGKERELVAAISSGGGTYYADSVKGRFTISRDNAMNTVYLQMNSLKPEDTAVYYCAADFANTTHWGRIKRNDYWGQGTQVTVSS | low polyreactivity
21 | QVQLVESVGGLVQAGGSLRLSCAASGSTLFYNAMGWYRQAPGKERELVATISGGGVSTYYADSVKGRFTISRDNAKNSVYLQMNSLNPEDTAVYYCAAAGWSEGGYDYWGQGTQVTVSS | low polyreactivity
22 | QVQLVESVGGLVQAGGSLRLSCAASGYIFDRNAMGWYRQAPGKERELVAAITKRGGITYYADSVKGRFTISRDNAKNTVYLQMNSLKPEDTAVYYCNALARSSRYDYWGQGTQVTVSS | low polyreactivity

Row | Sequence | polyreactivity (PSR sort gate)
23 | QVQLVESVGGLVQAGGSLRLSCAASGYTFYLYAMGWYRQAPGKERELVAAISYSSGGTYYADSVKGRFTISRDNAKNTVYLQMNSLKPEDTAVYYCAADAYDGEGTYPFEYWGQGTQVTVSS | low polyreactivity
24 | QVQLVESVGGLVQAGGSLRLSCDASGSIFASYAMGGYRQAPGKERELVAAISTSGVSTHYADSVNGRFTISRENAKNTVYLQLNSLKQEDTAVYYCAATPGYKRYYWGQGTQVTVSS | high polyreactivity
25 | QVQLVESVGGLVQAGGSLRLSCGSSGSIFPYNAMGWYRQAPGKERELVATISSGGSTNYADSVKGRFTISRDNAKNTFYLQMNSLKPEDTAFYYCAADVIVFYYAPNYCGDIEYGYWGQGTQVTVSS | low polyreactivity
26 | QVQLVESVGGLVQAGGSLRLSCSASGRTFAFYAMGWYRQAPGKVRELVASISSTGDRTYYADSVKGRFTISRDNAKNTVYLQMNSLIPEDTAVYYCAARWRYTYYYWGQGTQVTVSS | high polyreactivity
27 | QVQLVESVGGLVQAGGSLRLSFAASGSTFDVYAMGWYRQAPGKERELVAAIRSSGGSTFYADSVKGRFTISRDNAKNIVYLQMNSLNPEDTAVYYCAARSFVVSGYNKYYEYGYWGQGTQVTVSS | low polyreactivity
28 | QVQLVESVGGLVQAGGSLRLSSAASGFTFTRNTMGWYRQAPGKERELVAAITRGGSTNYADSVKGRFTISLDTAKNPVYLQMHSLKPEDTAVYYCAADAPFDSPYNYWGQGTQVTVSS | low polyreactivity
29 | QVQLVESVGGLVQAGGSLRLSSAASGRIFVFNAMGWYRQAPGKERELVAAISRRGGSTYYADSVKGRFTISRDNAKNTVYLQMNSLNPEVTAVYYCAAVYPDYSSARYDYWGQGTQVTVSS | high polyreactivity
30 | QVQLVESVGGLVQAGGSLRLTCAASGIILHDNTMGWYRQAPGKEREVVAAITSDGSTNYADSVKGRFTISRDNAKNTVYLQMNSLKPEDTAVYYCNTDDGPYTEFDYWGQGTQVTVSS | low polyreactivity
31 | QVQLVESVGGLVQAGGSLRLTCAASGLILRRYAMGWYRQAPGKEELVAAITSDASTYYADSVKGRFTISRYNAKNTVYLQMNSLKPEDPAVYYCAADTYDNDYYYWGQGTQVTVSS | high polyreactivity
32 | QVQLVESVGGLVQAGGSLRLTCVASGRIFLTYAMGWYRQAPGKERELVAAISYSGASTYYADSVKGRFTISRDNAKNTVYLQMNSLKPEDTAVYYCATERVGTPRMNYWGQGTQVTVSS | high polyreactivity
33 | QVQLVESVGGLVQARGSLRLICAASVRIIRGNAMGWYRQAPGKERELVAAISRRSGSTYYADSVKGRFTISRDNAKNTVYLQMISLKPEDTAVYYCAATCSLGDFRYDYWGQGTQVSVSS | high polyreactivity
34 | QVQLVESVGGLVQEGGSLRLICAASGSIFYTYAMGWYRQAPGKERELVAAIRSTGRTNYADSVKGRFTISRDNAKNTVYLHMNSLKPEDTGVYYCAAGTNYGKLRIRFDYWGQGTQVTVSS | low polyreactivity
35 | QVQLVESVGRLVQAGGSLRLSCAASGSTITPNAMGWYRQAPGKERELVAAINWSGTSTYYADSVKGRFTISRDNEKNTVYLQMNSLKQEDTAVYSCAASYPDVDYDYWGHGTQVTVSS | high polyreactivity
36 | QVQLVESVGVLVKAGGSLRLSCAASGRIYSSYALGWYRQAPGKEREFVAYISNSGGSTYYADSVKGRFTISRDNAKNTVYLQMNILKPEDTAVYYCAAAVYSYTYRYYYWGQGTQLTVSS | high polyreactivity
37 | QVQLVESVRGLFQAGGSLRLSCAASGFTFYIYDMGWYRQAPGTERELVAAITWSGGRTYYADSVKGRFTISRDNAKNTVYFQMNSLKPEDTAVYYCAASYPGLSFHKYEYWGQGTQLTVSS | high polyreactivity
38 | QVQLVESVVGLVQAGGSLRLSCAASGRIFFAYTMGWYRQAPGKERELVAAISSSGSTYYADSVKGRFTISRDNAKNTVYLQMNSLKPEDTAVYYLRVQRRAYRYDYWGQGTKVTVSS | high polyreactivity
39 | QVQLVESVVGLVQAGLSLRLSSAASGSIFSGYMGWYRHAPGKERELVATITSGGSTYADSVKGRFTISRDNAKNTVYLQMNSLKPEDTAVYYCAADVSFYTSKYDYWGLGTQVTVSS | low polyreactivity
40 | QVQLVESVVGLVQAGVSLRLSCAASGFIVYANAMGWYRQAPGKERELVAAISRGTSTYYADSVKGRFTISRDNAKNTVYLQMTSLKPEDTAVYYCATYYYRPWGGYYWGQGTQVTVSS | high polyreactivity
41 | QVQLVESWAGIVQAGGSLRVSCAASGSTFDRYAMGWYRQAPGKERELVAAISWSAGRTYYADSVKGRFTISRDNAKNTVYLQMNSLKPDDTAVYYCAADQIVSGTYDYYWGQGTHVTVSS | low polyreactivity
42 | QVQLVESWEGLVQAGGRLRLSCAASGSIFRPYTMGWYRQAPGKERELVATISSTGITNYADSVKGRFTISRDNAKITVYLQMNSLKPEVTAVYYCAAGLWFSYDYWGQGTQVTVSS | high polyreactivity
43 | QVQLVESWGGLDQAGGSLRLSCAASGRNLYWNTMGWYRQPPGKETQLVASITQNVGSTYYADSVKGRFTISRDFAKNTVYLQMNSLKPEDTAVYDCAAKRLYWLRYGYWGQGTQDTVSS | low polyreactivity
